In this series the test system is Escherichia coli TOP10. Briefly: shrunken log2 fold change of peptide-encoding DNA abundance (4.5 h post-induction vs induction); higher = less antimicrobial activity (less host growth inhibition). Particulars: time post-induction: 4.5 h; library: site-saturation at positions 5, 18, 19, 20.
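Further: peptides expressed intracellularly from a pBAD plasmid library in pooled LB shake-flask culture, induced with 0.3% L-arabinose, DNA abundance read by NGS, three biological replicates, DESeq2 with apeglm shrinkage.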

Turning to RRIRNRPPRLPRPRPRPNCRPRP, the “shrunken log2 fold change” value was -0.0373. RRIRRRPPRLPRPRPRPMRTPRP: the “shrunken log2 fold change” value came out at 0.911. Regarding RRIRTRPPRLPRPRPRPHYVPRP, the “shrunken log2 fold change” value is -0.0402.

On to RRIRMRPPRLPRPRPRPGWRPRP, for which the “shrunken log2 fold change” value was 1.15. Take RRIRARPPRLPRPRPRPPAMPRP: the “shrunken log2 fold change” value was determined as 0.394. The value for RRIRYRPPRLPRPRPRPFMLPRP was -1.19. To RRIRQRPPRLPRPRPRPKCFPRP belongs -0.25; to RRIRGRPPRLPRPRPRPRVAPRP, 0.816; to RRIRIRPPRLPRPRPRPQASPRP, -0.0941. On to RRIRGRPPRLPRPRPRPTMVPRP, for which the “shrunken log2 fold change” value stood at 0.786. Regarding RRIRCRPPRLPRPRPRPCFNPRP, the “shrunken log2 fold change” value turned out to be 0.713.

With RRIRSRPPRLPRPRPRPGCQPRP, the “shrunken log2 fold change” value came out at 0.287. RRIRVRPPRLPRPRPRPCALPRP: the “shrunken log2 fold change” value was -0.115.

For RRIRRRPPRLPRPRPRPPKFPRP, the “shrunken log2 fold change” value came to 0.298. Consider RRIRRRPPRLPRPRPRPECFPRP, for which the “shrunken log2 fold change” value amounted to 0.3. The value for RRIRSRPPRLPRPRPRPVNWPRP was 0.142. Take RRIRCRPPRLPRPRPRPTETPRP: the “shrunken log2 fold change” value was -0.0479. With RRIRKRPPRLPRPRPRPEMIPRP, the “shrunken log2 fold change” value is 0.0131. Take RRIRGRPPRLPRPRPRPCWEPRP: the “shrunken log2 fold change” value was -0.000921. To RRIRLRPPRLPRPRPRPQMKPRP belongs -0.0293; to RRIRHRPPRLPRPRPRPFSSPRP, 0.107. On to RRIRDRPPRLPRPRPRPQCRPRP, for which the “shrunken log2 fold change” value worked out at 0.0338. The value for RRIRWRPPRLPRPRPRPAVDPRP was 0.174. The value for RRIRSRPPRLPRPRPRPWQHPRP was 0.14.

RRIRIRPPRLPRPRPRPPVYPRP: the “shrunken log2 fold change” value was -0.288. RRIRSRPPRLPRPRPRPGKLPRP: the “shrunken log2 fold change” value is -0.0662. RRIRKRPPRLPRPRPRPNKAPRP: the “shrunken log2 fold change” value was determined as 0.0692.

For RRIRQRPPRLPRPRPRPACGPRP, the “shrunken log2 fold change” value was determined as 0.217.

As to RRIRQRPPRLPRPRPRPSSAPRP, the “shrunken log2 fold change” value was determined as 2.99.

On to RRIRKRPPRLPRPRPRPGIPPRP, for which the “shrunken log2 fold change” value is -0.0948.

In the case of RRIRQRPPRLPRPRPRPDFAPRP, the “shrunken log2 fold change” value is -0.0596. RRIRSRPPRLPRPRPRPEVGPRP: the “shrunken log2 fold change” value turned out to be 0.726. The value for RRIRRRPPRLPRPRPRPQLEPRP was 0.059. For RRIRERPPRLPRPRPRPVCGPRP, the “shrunken log2 fold change” value came out at 0.243. Turning to RRIRGRPPRLPRPRPRPYVCPRP, the “shrunken log2 fold change” value is -0.00206. To RRIRMRPPRLPRPRPRPPATPRP belongs 2.56.

On to RRIRFRPPRLPRPRPRPAKVPRP, for which the “shrunken log2 fold change” value turned out to be 0.333.

Consider RRIRNRPPRLPRPRPRPQFVPRP, for which the “shrunken log2 fold change” value was -0.0944.

On to RRIRFRPPRLPRPRPRPAPLPRP, for which the “shrunken log2 fold change” value worked out at 0.516. To RRIRMRPPRLPRPRPRPHPSPRP belongs -0.127; to RRIRGRPPRLPRPRPRPVDLPRP, 0.687; to RRIRRRPPRLPRPRPRPEFEPRP, 0.37. The value for RRIRLRPPRLPRPRPRPDCPPRP was 0.0832. In the case of RRIRTRPPRLPRPRPRPRTGPRP, the “shrunken log2 fold change” value came out at 0.312. Take RRIRPRPPRLPRPRPRPEFEPRP: the “shrunken log2 fold change” value is -0.0475. To RRIRERPPRLPRPRPRPINNPRP belongs -0.944; to RRIRSRPPRLPRPRPRPSYCPRP, -1.07. To RRIRHRPPRLPRPRPRPFMMPRP belongs -0.272. Regarding RRIRCRPPRLPRPRPRPNQTPRP, the “shrunken log2 fold change” value was -0.185. As to RRIRGRPPRLPRPRPRPMHHPRP, the “shrunken log2 fold change” value was found to be 0.533.

RRIRWRPPRLPRPRPRPGFPPRP: the “shrunken log2 fold change” value is -0.0683. In the case of RRIRFRPPRLPRPRPRPAHIPRP, the “shrunken log2 fold change” value was -0.218.

Regarding RRIRNRPPRLPRPRPRPDTFPRP, the “shrunken log2 fold change” value turned out to be 0.0183. To RRIRKRPPRLPRPRPRPVGFPRP belongs 0.485. In the case of RRIRLRPPRLPRPRPRPNVEPRP, the “shrunken log2 fold change” value is -0.211. For the sequence RRIRQRPPRLPRPRPRPIWEPRP, the “shrunken log2 fold change” value worked out at 0.0296.

Turning to RRIRWRPPRLPRPRPRPHKMPRP, the “shrunken log2 fold change” value was -0.146. For the sequence RRIRKRPPRLPRPRPRPSMPPRP, the “shrunken log2 fold change” value is 0.0159. For RRIRDRPPRLPRPRPRPLRVPRP, the “shrunken log2 fold change” value stood at 0.679. For RRIRARPPRLPRPRPRPEKEPRP, the “shrunken log2 fold change” value was determined as 0.248. In the case of RRIRPRPPRLPRPRPRPIMVPRP, the “shrunken log2 fold change” value was -0.158.

In the case of RRIRGRPPRLPRPRPRPSHQPRP, the “shrunken log2 fold change” value is -0.0609. Regarding RRIRYRPPRLPRPRPRPSYYPRP, the “shrunken log2 fold change” value was -1.66. To RRIRERPPRLPRPRPRPYNWPRP belongs -0.276; to RRIRIRPPRLPRPRPRPSHGPRP, 0.09; to RRIRQRPPRLPRPRPRPDRSPRP, 0.0153. To RRIRYRPPRLPRPRPRPMHHPRP belongs -0.596. The value for RRIRARPPRLPRPRPRPADTPRP was 0.0859; that for RRIRCRPPRLPRPRPRPCWRPRP was 0.252. Turning to RRIRARPPRLPRPRPRPTFSPRP, the “shrunken log2 fold change” value amounted to 0.233.

Consider RRIRVRPPRLPRPRPRPEGHPRP, for which the “shrunken log2 fold change” value was -0.0324. As to RRIRERPPRLPRPRPRPDPSPRP, the “shrunken log2 fold change” value worked out at 0.0648. Consider RRIRWRPPRLPRPRPRPCPYPRP, for which the “shrunken log2 fold change” value was -0.271.

Consider RRIRNRPPRLPRPRPRPQMVPRP, for which the “shrunken log2 fold change” value is -0.00674. As for RRIRERPPRLPRPRPRPGRYPRP, the “shrunken log2 fold change” value is -0.443. The value for RRIRGRPPRLPRPRPRPMPKPRP was 0.884. To RRIRARPPRLPRPRPRPMAVPRP belongs 0.209; to RRIRARPPRLPRPRPRPYQWPRP, -0.0841; to RRIRVRPPRLPRPRPRPCKVPRP, 0.00272. For the sequence RRIRCRPPRLPRPRPRPGEVPRP, the “shrunken log2 fold change” value turned out to be 0.212. To RRIRLRPPRLPRPRPRPICIPRP belongs -0.579.

As for RRIRIRPPRLPRPRPRPKSGPRP, the “shrunken log2 fold change” value was -0.128. In the case of RRIRCRPPRLPRPRPRPNSYPRP, the “shrunken log2 fold change” value was -0.54. The value for RRIRLRPPRLPRPRPRPSRFPRP was -0.211; that for RRIRSRPPRLPRPRPRPRSIPRP was -0.0602; that for RRIRLRPPRLPRPRPRPMSFPRP was -0.284.

Take RRIRERPPRLPRPRPRPKHHPRP: the “shrunken log2 fold change” value is -0.217. To RRIRCRPPRLPRPRPRPESWPRP belongs 0.598. As for RRIRKRPPRLPRPRPRPTLQPRP, the “shrunken log2 fold change” value is 0.594. As for RRIRCRPPRLPRPRPRPWSRPRP, the “shrunken log2 fold change” value is -0.391.

RRIRLRPPRLPRPRPRPWPVPRP: the “shrunken log2 fold change” value was 0.191.

Turning to RRIRIRPPRLPRPRPRPVFHPRP, the “shrunken log2 fold change” value is -0.936.

Consider RRIRPRPPRLPRPRPRPSTEPRP, for which the “shrunken log2 fold change” value is -0.0218. To RRIRRRPPRLPRPRPRPPIKPRP belongs 0.14. To RRIRHRPPRLPRPRPRPYWVPRP belongs -0.26. To RRIRPRPPRLPRPRPRPWWNPRP belongs -0.227; to RRIRVRPPRLPRPRPRPGMVPRP, 0.0182.

Consider RRIRYRPPRLPRPRPRPSDDPRP, for which the “shrunken log2 fold change” value was -0.917.

Regarding RRIRPRPPRLPRPRPRPTRSPRP, the “shrunken log2 fold change” value is 0.365. RRIRDRPPRLPRPRPRPCGEPRP: the “shrunken log2 fold change” value amounted to 0.488. For the sequence RRIRDRPPRLPRPRPRPIYMPRP, the “shrunken log2 fold change” value is -0.106. The value for RRIRCRPPRLPRPRPRPKPYPRP was 0.179; that for RRIRMRPPRLPRPRPRPKIIPRP was 0.102. The value for RRIRPRPPRLPRPRPRPGGIPRP was 0.114; that for RRIRPRPPRLPRPRPRPVCVPRP was 0.146; that for RRIRVRPPRLPRPRPRPVFIPRP was -0.144. The value for RRIRDRPPRLPRPRPRPHFLPRP was 0.0122; that for RRIRLRPPRLPRPRPRPLHQPRP was -0.297; that for RRIRSRPPRLPRPRPRPTLLPRP was 0.227. RRIRNRPPRLPRPRPRPHSLPRP: the “shrunken log2 fold change” value is -0.117.

As for RRIRKRPPRLPRPRPRPNRWPRP, the “shrunken log2 fold change” value amounted to 0.398. As for RRIRERPPRLPRPRPRPTKLPRP, the “shrunken log2 fold change” value was -0.0612. As for RRIRGRPPRLPRPRPRPMRYPRP, the “shrunken log2 fold change” value was 0.347.

As to RRIRERPPRLPRPRPRPCQMPRP, the “shrunken log2 fold change” value was -0.161. The value for RRIRWRPPRLPRPRPRPHGGPRP was -0.0606. The value for RRIRTRPPRLPRPRPRPAMDPRP was -0.708. For RRIRSRPPRLPRPRPRPFLPPRP, the “shrunken log2 fold change” value was -0.305. As for RRIRNRPPRLPRPRPRPWDNPRP, the “shrunken log2 fold change” value was -0.0545. The value for RRIRQRPPRLPRPRPRPQQMPRP was 0.156. Take RRIRCRPPRLPRPRPRPMAEPRP: the “shrunken log2 fold change” value turned out to be 0.331. As for RRIRMRPPRLPRPRPRPDAAPRP, the “shrunken log2 fold change” value was 3.98. RRIRCRPPRLPRPRPRPARTPRP: the “shrunken log2 fold change” value turned out to be 0.359. To RRIRTRPPRLPRPRPRPRALPRP belongs 0.116; to RRIRRRPPRLPRPRPRPYHMPRP, -0.254; to RRIRARPPRLPRPRPRPKQVPRP, 0.0289.
